Data set [1] concerns the molecule itself. The data set is described as follows: SEC; analytic gel filtration of recombinant TEFM; apparent molecular weight 82 kDa against 37.6 kDa for the chain.
The target of the next data set is POLRMT;TEFM (Homo sapiens;Homo sapiens, UniProt O00411;Q96QE5 42-1230;36-360, |). The data set is described as follows: MST; POLRMT titrated with 2000 nM TEFM; 500 uM ATP (one nt incorporation, paused), 10 mM Mg2+; MST: 25 mM Tris-HCl pH 8.0, 100 mM NaCl, 10 mM MgCl2, 10% glycerol, 1 mM DTT, 500 uM ATP, 0.05% Tween-20, 15 nM template, 22 C; footprinting: 25 mM Tris-HCl pH. The note with it: protein: recombinant;recombinant; copies: 1;2; label: 5' Alexa488 on DNA; 8 bp DNA:RNA hybrid; DNA 5' overhang 10 nt; RNA 5' overhang 4 nt (UUUU).

The target in the next data set is POLRMT (Homo sapiens, UniProt O00411 42-1230). The data set is described as follows: MST; 500 uM ATP (one nt incorporation, paused), 10 mM Mg2+, no TEFM; MST: 25 mM Tris-HCl pH 8.0, 100 mM NaCl, 10 mM MgCl2, 10% glycerol, 1 mM DTT, 500 uM ATP, 0.05% Tween-20, 15 nM template, 22 C; footprinting: 25 mM Tris-HCl pH. The note with it: protein: recombinant; label: 5' Alexa488 on DNA; 8 bp DNA:RNA hybrid; DNA 5' overhang 10 nt; RNA 5' overhang 4 nt (UUUU).
Chain of POLRMT (O00411 42-1230): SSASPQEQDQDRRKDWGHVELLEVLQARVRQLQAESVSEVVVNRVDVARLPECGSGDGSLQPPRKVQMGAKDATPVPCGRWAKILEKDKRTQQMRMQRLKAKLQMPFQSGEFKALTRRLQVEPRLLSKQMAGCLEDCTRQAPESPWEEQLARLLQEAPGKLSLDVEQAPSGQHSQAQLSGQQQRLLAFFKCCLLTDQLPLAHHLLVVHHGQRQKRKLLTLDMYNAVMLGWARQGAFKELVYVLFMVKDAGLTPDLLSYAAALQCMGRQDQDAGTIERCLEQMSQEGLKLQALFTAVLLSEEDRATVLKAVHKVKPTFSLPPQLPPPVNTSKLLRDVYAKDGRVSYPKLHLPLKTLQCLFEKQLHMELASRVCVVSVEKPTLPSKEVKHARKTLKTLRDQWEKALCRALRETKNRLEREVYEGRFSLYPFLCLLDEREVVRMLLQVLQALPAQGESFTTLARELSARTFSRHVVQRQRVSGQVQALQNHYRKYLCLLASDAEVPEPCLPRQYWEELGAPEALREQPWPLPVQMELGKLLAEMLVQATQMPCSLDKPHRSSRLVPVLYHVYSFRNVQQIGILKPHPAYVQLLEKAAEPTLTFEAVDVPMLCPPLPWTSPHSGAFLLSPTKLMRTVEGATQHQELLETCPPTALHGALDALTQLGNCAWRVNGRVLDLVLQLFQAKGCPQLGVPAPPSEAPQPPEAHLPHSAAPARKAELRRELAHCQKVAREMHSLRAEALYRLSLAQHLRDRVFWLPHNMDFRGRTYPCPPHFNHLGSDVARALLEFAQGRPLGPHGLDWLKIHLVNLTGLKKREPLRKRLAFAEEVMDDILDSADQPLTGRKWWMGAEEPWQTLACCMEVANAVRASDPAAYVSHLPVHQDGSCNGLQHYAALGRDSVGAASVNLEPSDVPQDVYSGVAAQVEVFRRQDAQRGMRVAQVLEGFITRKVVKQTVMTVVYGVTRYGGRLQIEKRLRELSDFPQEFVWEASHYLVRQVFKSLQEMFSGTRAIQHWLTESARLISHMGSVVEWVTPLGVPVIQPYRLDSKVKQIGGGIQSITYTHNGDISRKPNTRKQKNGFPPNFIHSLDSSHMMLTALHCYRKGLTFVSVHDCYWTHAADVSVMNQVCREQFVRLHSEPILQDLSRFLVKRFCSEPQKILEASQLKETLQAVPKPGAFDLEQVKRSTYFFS

Chain of POLRMT;TEFM (O00411 42-1230, chain 1 of 2, one chain of several): as the sequence (O00411 42-1230) above

B1: human TEFM (mitochondrial transcription elongation factor), residues 36-360 (natural protein, UniProt Q96QE5 36-360, looked up)
chain: KSTTPKKITPNVTFCDENAKEPENALDKLFSSEQQASILHVLNTASTKELEAFRLLRGRRSINIVEHRENFGPFQNLESLMNVPLFKYKSTVQVCNSILCPKTGREKRKSPENRFLRKLLKPDIERERLKAVNSIISIVFGTRRIAWAHLDRKLTVLDWQQSDRWSLMRGIYSSSVYLEEISSIISKMPKADFYVLEKTGLSIQNSSLFPILLHFHIMEAMLYALLNKTFAQDGQHQVLSMNRNAVGKHFELMIGDSRTSGKELVKQFLFDSILKADPRVFFPSDKIVHYRQMFLSTELQRVEELYDSLLQAIAFYELAVFDSQP
modifications: amine-labeled with NT-547 dye (only in the MST with POLRMT)
notes: human TEFM, UniProt Q96QE5, residues 36-360; lacks the predicted mitochondrial targeting signal; The gel filtration used unlabelled protein; the MST used NT-547-labelled protein; also called recombinant TEFM; recombinant human TEFM; source: KRX cells (Promega), purified (Ni-IMAC, TEV cleavage, HiTrap Heparin, Sephacryl S-200 gel filtration); not shown: His6, N-terminal, cleaved
Consider B1, for which, in data set [1], the stoichiometry N (in general, the number of molecules, sites or subunits per partner or assembly) worked out at 2.

B2: elongation-like DNA:RNA template (18-mer DNA / 12-mer RNA) (DNA:RNA)
DNA: GGGAATGCATGGCGCGGC
RNA: UUUUGCCGCGCC
With B2, the Kd (commonly the constant that tells how readily two partners part at equilibrium) with POLRMT;TEFM is 11.2 ± 1 nM; in the data set with POLRMT, 47.8 ± 2.88 nM.
